Measured values reported in patent US20200048360A1 (TRACON PHARMACEUTICALS, published 2020).
Changes are numbered by the printed parent chain. Read-outs that look alike come from different tables or passages of the source.

B1: chimeric anti-CD105 antibody TRC105 (antibody, V domains shown)
VH: EVKLEESGGGLVQPGGSMKLSCAASGFTFSDAWMDWVRQSPEKGLEWVAEIRSKASNHATYYAESVKGRFTISRDDSKSSVYLQMNSLRAEDTGIYYCTRWRRFFDSWGQGTTLTVSS
VL: QIVLSQSPAILSASPGEKVTMTCRASSSVSYMHWYQQKPGSSPKPWIYATSNLASGVPVRFSGSGSGTSYSLTISRVEAEDAATYYCQQWSSNPLTFGAGTKLELK
notes: Chimeric monoclonal antibody with the murine SN6j variable regions; also called chimeric anti-endoglin antibody; c-SN6j
B2: VK2AAVH1A2 (antibody, V domains shown)
VH: EVQLVESGGGLVKPGGSLRLSCAASGFTFSDAWMDWVRQAPGKGLEWVGEARSKASNHATYYAESVKGRFTISRDDSKNTLYLQMNSLKTEDTAVYYCTRWRRFFDSWGQGTLVTVSS
VL: DIQLTQSPSSLSASVGDRATITCRASSSVSYMHWYQQKPGKAPKPWAYATSNLASGVPSRFSGSGSGTDYTLTISSLQPEDFATYYCQQWSSNPLTFGGGTKVEIK
notes: IgG1 heavy chain, kappa light chain
B3: VK1AAVH1R (antibody, V domains shown)
VH: B2 VH with A51I, K54R
VL: B2 VL with L4M
notes: as for B2
B4: VK1AAVH1A2 (antibody, V domains shown)
VH: B2 VH
VL: B2 VL with L4M
notes: IgG1 heavy chain, kappa light chain; also called humanized/deimmunized anti-endoglin antibody VK1AAVH1A2
B5: VK1AAVH1Q (antibody, V domains shown)
VH: B2 VH with A51I, K54Q
VL: B2 VL with L4M
notes: as for B2

How the values were obtained:
[1] = molecular target: T1, human CD105 (R&D Systems, Catalog No. 1097-EN) (human, UniProt P17813 26-586); experiment: ELISA with OD450 falling against test antibody concentration (competition format of paragraph 712: biotinylated chimeric anti-CD105 on captured human CD105; the legend says only 'binding assay data')
T1 construct: Captured on the plate by mouse anti-human CD105 (Southern Biotechnologies 9811-01); also called endoglin
T1 sequence (looked up): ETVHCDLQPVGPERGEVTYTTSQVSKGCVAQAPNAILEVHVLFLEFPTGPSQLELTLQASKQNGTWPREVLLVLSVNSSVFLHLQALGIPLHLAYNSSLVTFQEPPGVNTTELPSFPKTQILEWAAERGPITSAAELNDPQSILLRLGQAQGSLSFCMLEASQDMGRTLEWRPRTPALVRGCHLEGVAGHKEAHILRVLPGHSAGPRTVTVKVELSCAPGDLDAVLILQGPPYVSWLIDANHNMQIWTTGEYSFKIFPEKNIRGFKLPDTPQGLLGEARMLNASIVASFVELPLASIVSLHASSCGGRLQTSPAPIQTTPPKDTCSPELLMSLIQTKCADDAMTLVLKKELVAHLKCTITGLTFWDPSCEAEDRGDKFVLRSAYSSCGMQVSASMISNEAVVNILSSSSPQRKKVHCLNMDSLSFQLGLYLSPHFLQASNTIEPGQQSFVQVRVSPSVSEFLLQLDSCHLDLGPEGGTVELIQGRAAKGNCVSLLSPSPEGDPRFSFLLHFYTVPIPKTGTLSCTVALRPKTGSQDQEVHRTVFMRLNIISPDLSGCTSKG

[2] = molecular target: T1, human CD105 (R&D Systems, Catalog No. …); experiment: as above; remark: listed apart in the source
[3] = molecular target: T1, human CD105 (R&D Systems, Catalog No. …); experiment: as above; remark: listed apart in the source
[4] = molecular target: T1, human CD105 (R&D Systems, Catalog No. …); experiment: as above; remark: listed apart in the source
[5] = molecular target: T1, human CD105 (R&D Systems, Catalog No. …); experiment: as above; remark: listed apart in the source
[6] = molecular target: T1, human CD105 (R&D Systems, Catalog No. …); experiment: as above; remark: listed apart in the source
[7] = molecular target: T1, human CD105 (R&D Systems, Catalog No. …); experiment: as above; remark: listed apart in the source
recombinant endoglin = molecular target: T2, recombinant endoglin (UniProt P17813 26-586, limits assumed); experiment: BIAcore SPR, antibody captured on protein A chip, recombinant endoglin as analyte, 25 C
T2 sequence (looked up): T1 sequence (looked up)
Protocol: Affinity of antibodies can be assessed using, for example, BIAcore analysis using standard protocols. Briefly, protein A is chemically coupled to a BIAcore CM5 chip, with the amount of protein A immobilized corresponding to ˜2000 R U. Subsequent steps are performed in a running buffer of 10 mM HEPES, 150 mM NaCl, 3 mM EDTA, 0.05% TWEEN, pH=7.4, at 25 degrees Celsius using a 10 Hz data collection rate. Anti-endoglin antibody (10 nM) is captured at a 10 μL/min flow rate by the immobilized protein A on the BIAcore chip: typically, capture times of 20, 40 and 80 seconds allow the capture of antibody densities corresponding to 130 RU, 330 RU and 570 RU, respectively. Start-up cycles are performed using running buffer at a flow rate of 40 μl/min, a contact time of 90 seconds and a dissociation time of 90 seconds. Sample cycles are performed using recombinant endoglin at concentrations ranging from 0 to 40 nM. Endoglin is passed over the BIAcore chip containing captured antibody at a flow rate of 40 μl/min with a contact time of 525 seconds and dissociation time of 2500 seconds. Eight sample cycles are typically performed at each antibody capture density Regeneration of the chip is accomplished using 10 mM glycine pH=1.7. Data analysis is performed using BIAcore T100 Evaluation Software v1.1 Signals generated using BIAcore chips with different captured antibody densities are compared and data generated in the absence of recombinant endoglin are used to adjust for the intraassay blank signal. For fitting of the data, the Rₘₐₓ is allowed to float to account for variation in capture levels of each antibody in each cycle. Data from each capture density is fitted simultaneously during analysis of each antibody. BIAcore data are presented in Table 2 for chimeric, humanized and humanized/deimmunized anti-endoglin antibodies, including kₐ (1/Ms), kd (1/s), KD (M) and […] (RU²).

[8] = molecular target: T1, human CD105 (R&D Systems, Catalog No. …); experiment: ELISA with OD450 falling against test antibody concentration (competition format of paragraph 712: biotinylated chimeric anti-CD105 on captured human CD105; the legend says only 'binding assay data'); remark: listed apart in the source
[9] = molecular target: T1, human CD105 (R&D Systems, Catalog No. …); experiment: competition ELISA on captured human CD105; competitor biotinylated chimeric anti-CD105
Protocol: Antibodies were tested in a competition ELISA for binding to CD105 against biotinylated chimeric anti-CD105. Briefly, chimeric anti-CD105 was biotinylated using a micro-biotinylation kit (Sigma, Catalog No. BTAG-1KT) following the manufacturer's instructions. […] Binding of the biotinylated chimeric antibody was detected via streptavidin-HRP (Sigma, Catalog No. 55512) and TMB substrate (Sigma, Catalog No. T0440). OD450 nm values were measured on a Dynex MRX TCII plate reader. The results of the competition analysis are illustrated in FIGS. 7 and 8. […] To allow for comparisons within and between experiments, IC50 values of humanized or humanized/deimmunized variants were normalized against the reference antibody that was included on each plate to give a value for the fold difference. IC50 values are relative to chimeric anti-CD105 and are representative of three experiments. Summary ELISA data are presented in Table 1 and include antibody expression levels […]) as assayed in saturated static cultures.

| Binder | IC50 (read off the curve) [1] | IC50 (read off the curve) [2] | IC50 (read off the curve) [3] | IC50 (read off the curve) [4] | IC50 (read off the curve) [5] | IC50 (read off the curve) [6] | IC50 (read off the curve) [7] | Kd (recombinant endoglin) | koff (recombinant endoglin) | kon (recombinant endoglin) | IC50 (read off the curve) [8] | Relative IC50 (fold of chimeric anti-endoglin antibody) [9] |
| --- | --- | --- | --- | --- | --- | --- | --- | --- | --- | --- | --- | --- |
| B1 | ~0.2 µg/mL | ~0.2 µg/mL | ~0.2 µg/mL | ~0.2 µg/mL | ~0.2 µg/mL | ~0.2 µg/mL | ~0.2 µg/mL | 0.6 nM | 3.28e-05 s⁻¹ | 54700 M⁻¹ s⁻¹ | ~0.2 µg/mL |  |
| B2 |  |  |  |  |  |  | ~0.2 µg/mL |  |  |  |  | 0.99 fold relative to chimeric |
| B3 |  |  |  |  | ~0.2 µg/mL |  |  | 0.533 nM | 3.41e-05 s⁻¹ | 64000 M⁻¹ s⁻¹ |  | 1.05 fold relative to chimeric |
| B4 |  |  |  |  |  |  |  | 0.706 nM | 3.25e-05 s⁻¹ | 46000 M⁻¹ s⁻¹ | ~0.2 µg/mL | 1.12 fold relative to chimeric |
| B5 |  |  |  |  |  | ~0.2 µg/mL |  | 0.85 nM | 3.03e-05 s⁻¹ | 35600 M⁻¹ s⁻¹ |  | 1.3 fold relative to chimeric |
